B1: Ana2-mNG (Ana2 tagged with monomeric NeonGreen at the C-terminus, CRISPR/Cas9 knock-in at the endogenous locus) (natural protein)
chain: MFVPETEDMLPRLAPRPSAAVPMGHTNEIIGPTVPEVSILFGQPPQDPQMQPQQPNHAHQESSPRAAPTFASWKKQMLPRVNFSPILATELGPRTAPSSNSPCSSKEYQVMPRDRNYASDAQQTTNHMNCNAGGYNAEPKQQAYQSRRLSSSSNADVLTICAGTQTDPFNPSPPRKSLPQVVYSDIDVSNLANKSDLAALVSLVESVRHEQQQLRNLCEMILEQQQRAKPEAISKASSTTGTQCDILTTNQAGRRLSPIMQDYIAEEEEPLPPPQARVIPQFPSPRPHPPIAQSTGYRANTPQAKRIPQLAKPNTEKSMVMNELALKYLRQPVDELMKDMRLGASPKSPNPEPLRPIDNIGHAQSPNDISNASYKYLKKYRLLPEEQLEPVCPQSPMAATAPSPHIQLDLENIRNQPKLL
B2: mNG-Ana2 (Ana2 tagged with monomeric NeonGreen at the N-terminus, CRISPR/Cas9 knock-in at the endogenous locus) (natural protein)
chain: B1 chain

Biological target: the molecule itself
Assay: fluorescence correlation spectroscopy

Protein	stoichiometry N
B1	~2
B2	~2
